This experiment addresses MED14-containing head+middle (H+M+14) complex (human) (UniProt O60244). Kind of experiment: co-IP.

Where only a bound is given, the exact number is not on record here.

“RNA polymerase II (from UniProt P24928;P61218) (complex)”: the percent of input bound is < 75 % of input.
